Experimental data from patent US20050191301A1 (Janssen / Centocor, published 2005).
Ends that are not written are not given here.

T1: EPO receptor (on UT-7/EPO cells) (human, UniProt P19235 25-508)
T1 sequence (looked up): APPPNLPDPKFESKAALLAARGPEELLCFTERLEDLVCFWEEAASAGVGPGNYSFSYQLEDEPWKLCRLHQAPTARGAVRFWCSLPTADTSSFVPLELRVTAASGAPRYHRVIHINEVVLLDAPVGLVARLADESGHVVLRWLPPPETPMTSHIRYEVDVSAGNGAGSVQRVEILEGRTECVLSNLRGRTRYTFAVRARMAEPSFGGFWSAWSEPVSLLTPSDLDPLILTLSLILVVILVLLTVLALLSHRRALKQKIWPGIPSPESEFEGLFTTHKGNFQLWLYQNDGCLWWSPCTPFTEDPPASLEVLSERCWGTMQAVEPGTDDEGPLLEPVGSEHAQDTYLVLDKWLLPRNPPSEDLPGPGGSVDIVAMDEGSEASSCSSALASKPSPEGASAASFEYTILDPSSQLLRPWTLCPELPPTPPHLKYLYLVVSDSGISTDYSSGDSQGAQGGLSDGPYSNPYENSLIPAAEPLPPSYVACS


Key:
[1] = molecular target: EPO receptor (on UT-7/EPO cells) (human) (UniProt P19235); test: cell-based or functional assay
[2] = molecular target: T1, EPO receptor (on UT-7/EPO cells); test: cell-based or functional assay

| EC50 in the UT7 in vitro bioactivity assay, relative to its historical average [1] [fold] | EC50 in the UT-7/EPO in vitro bioactivity assay, relative to its historical average [2] [fold] | Molecule |
| --- | --- | --- |
| 3 |  | recombinant human erythropoietin (rHuEPO) (from UniProt P01588 28-192) (ligand) |
|  | 2 | GGTYSCHFGPLTWVCKPQGG (ends and bridges not checked; cysteine pairing not given here) [EMP-1 (EPO mimetic peptide-1)] |
